The values below come from the emibetuzumab library of Makowski et al. (2022).

To fix the notation:
B1: VH:VL chains; a variant is named by its letters at X, in order (parent)
chain 1: QVQLVQSGAEVKKPGASVKVSCKASGYTFTDYXMHWVRQAPGQGLEWMGXVNPNXXXTTYNQKFEGRVTMTTDTSTSTAYMELRSLRSDDTAVYYCARXNXLDXWGQGTTVTVSS
chain 2: DIQMTQSPSSLSASVGDRVTITCSVSSSVSSIYLHWYQQKPGKAPKLLIYSTSNLASGVPSRFSGSGSGTDFTLTISSLQPEDFATYYCQVYSGYPLTFGGGTKVEIK

Variants of B1 are the subject of this series. The series can be described thus: yeast display scFab, FACS + sequencing. The method in brief: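 For the non-specific binding call, a heavy-chain CDR mutant scFab library on the yeast surface was FACS-sorted and samples from two replicates were deep sequenced. Cells were labelled with anti-Myc and either biotinylated ovalbumin (260 μg/mL in PBSB, 3 h, room temperature) or soluble membrane proteins (130 μg/mL, 20 min on ice), with gates on the top 25% and bottom 10% of binders. With membrane protein and ovalbumin samples pooled, a sequence in ≥3 of 4 positive samples and no negatives was scored positive, and the converse rule scored negatives.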
As for FKGRGSLY, the non-specific binding call is “binds”.

With FRGESAGS, the non-specific binding call was “binds”. With YRGRGFSD the entry was “binds”. With YGGGGASV the entry was “binds”; with VEEEGSAV, “no binding”; with SGRGNAAD, “no binding”. The result for FAKEGDGD reads “no binding”.

For the variant YRAAGDVA, the non-specific binding call is on record as “no binding”. With FTGTGSGA the entry was “no binding”; with VAEKGDVF, “no binding”. With VTGEDAGS, the non-specific binding call is recorded as “no binding”. As to VGGTDFVA, the non-specific binding call is given as “no binding”. Take YRRRGFGV: the non-specific binding call is “binds”. As for FTGTSDLY, the non-specific binding call is “no binding”. With FRGRDVAV the entry was “binds”. With VKARSAGV the entry was “binds”; with YRRKDALA, “binds”.

As to FRGESSGA, the non-specific binding call was “binds”. Turning to YRGRGFVA, the non-specific binding call is “binds”. The result for STEGGSVY reads “no binding”; that for YAEATDLY, “no binding”; that for YRRGGSWV, “binds”. With DTEGGSAS the entry was “no binding”. The result for YRERSSVA reads “binds”; that for FAGEGAGV, “no binding”. Turning to YRGGTAAA, the non-specific binding call was “binds”.

VRAGDAGV: the non-specific binding call is “no binding”. With FRTRGAVV the entry was “binds”. The result for YTRGSAWV reads “binds”. With YRAGDDVY the entry was “no binding”; with FRTEGSAD, “binds”; with SKKRGAWA, “binds”. On to SEARSYVV, for which the non-specific binding call is on record as “no binding”. With VRGAGSWV the entry was “binds”; with SEGTGSSV, “no binding”; with FRGRASLS, “binds”. Turning to VAGTGDVF, the non-specific binding call is listed as “no binding”. As for VRGKGDWV, the non-specific binding call is recorded as “no binding”. Regarding VRGGDDGV, the non-specific binding call is “no binding”. With VAGTGDLY the entry was “no binding”. With FRTRSSGV the entry was “binds”; with YTKTGDAV, “no binding”.

Consider AARADAVY, for which the non-specific binding call is on record as “no binding”.

DAGGGAAV: the non-specific binding call was “no binding”. As to YRRRDSSA, the non-specific binding call is on record as “binds”. With VETEGSGV the entry was “no binding”. The result for FRGGGSWA reads “binds”; that for DAATAYGS, “binds”; that for YRGKASVD, “binds”. The result for DATGNVWS reads “binds”; that for DARGGAVV, “no binding”; that for YKAGDAAA, “binds”. Consider VRERGDLV, for which the non-specific binding call is “no binding”. Turning to YKGKGSVS, the non-specific binding call is recorded as “binds”. The result for VEKEGDVY reads “no binding”. With DAGGADVA the entry was “no binding”.

Take DKEGGAVV: the non-specific binding call is on record as “no binding”. For the variant FRGRDSSF, the non-specific binding call is “binds”. With FARKSDSS the entry was “no binding”.

For the variant YRRKGSSS, the non-specific binding call is “binds”. In the case of YAGRAAWD, the non-specific binding call is “binds”. The result for YRRGGYVD reads “binds”. With DKAGGDGS the entry was “no binding”.

In the case of FAEGASSS, the non-specific binding call is “no binding”.

VEGGGSGV: the non-specific binding call is given as “no binding”.

In the case of VERKGYLA, the non-specific binding call is “binds”. In the case of VTGTGAAV, the non-specific binding call was “no binding”. The result for AKGRADVY reads “no binding”. Consider VAATADAV, for which the non-specific binding call is recorded as “no binding”. With YREGGSGV the entry was “binds”; with FKAGGSGA, “binds”.

DTGTGSVD: the non-specific binding call is listed as “no binding”. As for SREAASGV, the non-specific binding call was “no binding”. With FREGGSGD the entry was “binds”. With SGKKAVWV the entry was “binds”. The result for YAAETDVF reads “no binding”; that for YKGEGDLV, “no binding”; that for DRGGSSAA, “no binding”.

For the variant YEGGGDWF, the non-specific binding call was “no binding”.

For AARADAGA, the non-specific binding call is listed as “no binding”. With FEATAAGS the entry was “binds”; with VATGGYAV, “no binding”; with SRGGGALD, “no binding”. With VRKKGVSS, the non-specific binding call was “binds”.

As for YTKAASWV, the non-specific binding call is on record as “no binding”. With FRRRGAAD, the non-specific binding call is “binds”. The result for YRGRSASS reads “binds”. On to YRAGDSVD, for which the non-specific binding call is “no binding”. The result for FRAGSSGV reads “binds”; that for DRRGDDGA, “no binding”; that for VRAGDSVA, “no binding”. The result for YATAADWD reads “no binding”; that for ATGTGSGA, “no binding”; that for YRTAGSGD, “binds”. As to YGAGDFGA, the non-specific binding call is listed as “binds”. With YRRGSSAV the entry was “binds”; with DAGGGDVV, “no binding”. With FRGRDDWA the entry was “no binding”. For YRGGSDVA, the non-specific binding call was “no binding”. On to VEAGDALV, for which the non-specific binding call is reported as “no binding”. For the variant FRGGGSGF, the non-specific binding call is “binds”.

YRAGSSGD: the non-specific binding call is “binds”. In the case of YGTAAFGF, the non-specific binding call is listed as “binds”. As to YRKKSVGA, the non-specific binding call is reported as “binds”.

Regarding YRKGGDLY, the non-specific binding call is recorded as “no binding”. The result for YRGKAAGV reads “binds”; that for YRGKGFVA, “binds”; that for YTRGADWA, “no binding”.

On to YTRGADGA, for which the non-specific binding call is “no binding”. With FAGGGFAV the entry was “binds”; with SEGGTDVV, “no binding”. As to YRGEGDAA, the non-specific binding call is “no binding”.

As to DGGKNAVA, the non-specific binding call is reported as “no binding”. The result for STTGGDGV reads “no binding”; that for YKRGDDLV, “no binding”. The result for STEEGDWV reads “no binding”.
